Measured values reported in paper PMC8996997, “YY1 Oligomerization Is Regulated by Its OPB Domain and Competes with Its Regulation of Oncoproteins” (Cancers, 2022).

Target: T1, His×6-YY1(wt) (human, UniProt P25490 1-414)
T1 construct: Yin Yang 1 (YY1), wild type; also called Yin Yang 1; source: bacteria, recombinant, purified
Assay: SPR; Biacore T200; about 12,000 RU of His×6-YY1(wt) immobilised by amine coupling on a CM5 chip; analytes at 62.5, 125, 250, 500 and 1000 nM
Details: both partners purified

B1: His×6-YY1(260–414) (domain or fragment, human, UniProt P25490 260-414, looked up)
chain: LPPGGIPGIDLSDPKQLAEFARMKPRKIKEDDAPRTIACPHKGCTKMFRDNSAMRKHLHTHGPRVHVCAECGKAFVESSKLKRHQLVHTGEKPFQCTFEGCGKRFSLDFNLRTHVRIHTGDRPYVCPFDGCNKKFAQSTNLKSHILTHAKAKNNQ
notes: source: bacteria, recombinant, purified
B1: binds.
